# In patent US20230127248A1 (AILERON THERAPEUTICS, published 2023):
# Bridge positions count the residues as written; N and C are the ends. Square brackets hold non-standard residues; d marks the D form. Phe(4-F) = N[C@@H](Cc1ccc(F)cc1)C(=O)O; R8 = C=CCCCCCC[C@@](C)(N)C(=O)O; hLeu = CC(C)CC[C@H](N)C(=O)O; S5 = C=CCCC[C@](C)(N)C(=O)O; Nle = CCCC[C@H](N)C(=O)O
# B1: SP-962 (peptidomimetic macrocycle derived from the MCL-1/BCL-XL/BCL-2-binding helix of BIM) (peptide)
# peptide: Ac-IWIAQALR[R8][hLeu]GDAFN[S5]Y[Phe(4-F)]A-NH2
# modifications: staple 9-16
# SMILES: CC[C@H](C)[C@H](NC(C)=O)C(=O)N[C@@H](Cc1c[nH]c2ccccc12)C(=O)N[C@H](C(=O)N[C@@H](C)C(=O)N[C@@H](CCC(N)=O)C(=O)N[C@@H](C)C(=O)N[C@@H](CC(C)C)C(=O)N[C@@H](CCCNC(=N)N)C(=O)N[C@]1(C)CCCCCCC=CCCC[C@@](C)(C(=O)N[C@@H](Cc2ccc(O)cc2)C(=O)N[C@@H](Cc2ccc(F)cc2)C(=O)N[C@@H](C)C(N)=O)NC(=O)[C@H](CC(N)=O)NC(=O)[C@H](Cc2ccccc2)NC(=O)[C@H](C)NC(=O)[C@H](CC(=O)O)NC(=O)CNC(=O)[C@H](CCC(C)C)NC1=O)[C@@H](C)CC
# notes: Stapled BIM BH3 peptide, 19 residues
# B2: SP-809 (peptidomimetic macrocycle derived from the MCL-1/BCL-XL/BCL-2-binding helix of BIM) (peptide)
# peptide: Ac-IWIAQALR[R8]IGDEFN[S5]YYARR-NH2
# modifications: staple 9-16
# SMILES: CC[C@H](C)[C@H](NC(C)=O)C(=O)N[C@@H](Cc1c[nH]c2ccccc12)C(=O)N[C@H](C(=O)N[C@@H](C)C(=O)N[C@@H](CCC(N)=O)C(=O)N[C@@H](C)C(=O)N[C@@H](CC(C)C)C(=O)N[C@@H](CCCNC(=N)N)C(=O)N[C@]1(C)CCCCCCC=CCCC[C@@](C)(C(=O)N[C@@H](Cc2ccc(O)cc2)C(=O)N[C@@H](Cc2ccc(O)cc2)C(=O)N[C@@H](C)C(=O)N[C@@H](CCCNC(=N)N)C(=O)N[C@@H](CCCNC(=N)N)C(N)=O)NC(=O)[C@H](CC(N)=O)NC(=O)[C@H](Cc2ccccc2)NC(=O)[C@H](CCC(=O)O)NC(=O)[C@H](CC(=O)O)NC(=O)CNC(=O)[C@H]([C@@H](C)CC)NC1=O)[C@@H](C)CC
# notes: Stapled BIM BH3 peptide, 21 residues
# B3: SP-815 (peptidomimetic macrocycle derived from the MCL-1/BCL-XL/BCL-2-binding helix of BIM) (peptide)
# peptide: Ac-IWIAQALR[R8]IGDAFN[S5]YYA-NH2
# modifications: staple 9-16
# SMILES: CC[C@H](C)[C@H](NC(C)=O)C(=O)N[C@@H](Cc1c[nH]c2ccccc12)C(=O)N[C@H](C(=O)N[C@@H](C)C(=O)N[C@@H](CCC(N)=O)C(=O)N[C@@H](C)C(=O)N[C@@H](CC(C)C)C(=O)N[C@@H](CCCNC(=N)N)C(=O)N[C@]1(C)CCCCCCC=CCCC[C@@](C)(C(=O)N[C@@H](Cc2ccc(O)cc2)C(=O)N[C@@H](Cc2ccc(O)cc2)C(=O)N[C@@H](C)C(N)=O)NC(=O)[C@H](CC(N)=O)NC(=O)[C@H](Cc2ccccc2)NC(=O)[C@H](C)NC(=O)[C@H](CC(=O)O)NC(=O)CNC(=O)[C@H]([C@@H](C)CC)NC1=O)[C@@H](C)CC
# notes: as for B1
# B4: SP-810 (peptidomimetic macrocycle derived from the MCL-1/BCL-XL/BCL-2-binding helix of BIM) (peptide)
# peptide: Ac-IWIAQELR[R8]IGDEFN[S5]YYARR-NH2
# modifications: staple 9-16
# SMILES: CC[C@H](C)[C@H](NC(C)=O)C(=O)N[C@@H](Cc1c[nH]c2ccccc12)C(=O)N[C@H](C(=O)N[C@@H](C)C(=O)N[C@@H](CCC(N)=O)C(=O)N[C@@H](CCC(=O)O)C(=O)N[C@@H](CC(C)C)C(=O)N[C@@H](CCCNC(=N)N)C(=O)N[C@]1(C)CCCCCCC=CCCC[C@@](C)(C(=O)N[C@@H](Cc2ccc(O)cc2)C(=O)N[C@@H](Cc2ccc(O)cc2)C(=O)N[C@@H](C)C(=O)N[C@@H](CCCNC(=N)N)C(=O)N[C@@H](CCCNC(=N)N)C(N)=O)NC(=O)[C@H](CC(N)=O)NC(=O)[C@H](Cc2ccccc2)NC(=O)[C@H](CCC(=O)O)NC(=O)[C@H](CC(=O)O)NC(=O)CNC(=O)[C@H]([C@@H](C)CC)NC1=O)[C@@H](C)CC
# notes: as for B2
# B5: SP590 (Table 1b): Ac-LTF$rAYWAQL$A-NH2 (peptide)
# peptide: Ac-LTF[R8]AYWAQL[S5]A-NH2
# modifications: staple 4-11
# SMILES: CC(=O)N[C@@H](CC(C)C)C(=O)N[C@H](C(=O)N[C@@H](Cc1ccccc1)C(=O)N[C@]1(C)CCCCCCC=CCCC[C@@](C)(C(=O)N[C@@H](C)C(N)=O)NC(=O)[C@H](CC(C)C)NC(=O)[C@H](CCC(N)=O)NC(=O)[C@H](C)NC(=O)[C@H](Cc2c[nH]c3ccccc23)NC(=O)[C@H](Cc2ccc(O)cc2)NC(=O)[C@H](C)NC1=O)[C@@H](C)O
# Molecular target: T1, MCL-1 (Myeloid cell leukemia 1) (UniProt Q07820 172-327, limits assumed)
# T1 construct: Construct used in the IC50 assay is not described
# Assay: IC50 against MCL-1, Table 4b; assay format not stated
# T1 sequence (Q07820 172-327 limits assumed): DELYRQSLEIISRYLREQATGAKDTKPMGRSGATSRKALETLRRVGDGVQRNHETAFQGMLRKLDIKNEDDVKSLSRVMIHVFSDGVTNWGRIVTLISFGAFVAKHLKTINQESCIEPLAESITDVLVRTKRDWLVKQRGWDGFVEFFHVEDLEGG
row,IC50 [µM],Binder
1,0.027,B1
2,0.0106,B2
3,0.0084,B3

# Molecular target: T2, BCL-XL (UniProt Q07817 1-209)
# T2 construct: Construct used in the IC50 assay is not described; also called BCL-X1
# Assay: IC50 against BCL-XL, Table 4b; assay format not stated
# T2 sequence (Q07817 1-209): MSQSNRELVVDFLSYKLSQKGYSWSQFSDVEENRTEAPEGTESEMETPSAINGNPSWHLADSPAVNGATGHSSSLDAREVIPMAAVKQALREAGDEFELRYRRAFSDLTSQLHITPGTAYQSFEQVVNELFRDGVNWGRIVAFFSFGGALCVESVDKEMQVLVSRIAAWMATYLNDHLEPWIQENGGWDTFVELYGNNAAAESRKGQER
row,IC50 [µM],Binder
1,0.013,B1
2,0.0092,B4
3,0.0039,B2
4,0.0224,B3

# Molecular target: T3, MDM2 (human, UniProt Q00987 1-138, limits assumed)
# T3 construct: also called HDM2; human double minute 2
# Assay: IC50 against MDM2; assay format and competitor not described with the table
# T3 sequence (Q00987 1-138 limits assumed): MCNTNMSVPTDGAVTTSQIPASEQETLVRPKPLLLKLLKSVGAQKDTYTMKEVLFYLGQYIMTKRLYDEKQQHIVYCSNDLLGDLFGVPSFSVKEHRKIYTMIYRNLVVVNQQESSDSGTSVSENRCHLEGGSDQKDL
row,IC50 [µM],Binder
1,0.01,Ac-LTF[R8]AYWAQL[S5]AAAAAA[dA]-NH2 (staple 4-11; also: single isomer iso1) [SP317: Ac-LTF$r8AYWAQL$AAAAAAa-NH2 (iso1)]
2,0.029,"Ac-LTF[R8]AYWAQL[S5]AA[Nle]A-NH2 (staple 4-11, i, i+7 stapled p53-derived macrocycle) [SP68: Ac-LTF$r8AYWAQL$AANleA-NH2]"
3,0.141,B5
